# Biological target: EGFR-Flag (UniProt P00533)
# Assay: cell-based or functional assay
# Sequence of HA-Karet (full-length mouse Karet with N-terminal haemagglutinin tag) (Q8K2Y9 whole entry): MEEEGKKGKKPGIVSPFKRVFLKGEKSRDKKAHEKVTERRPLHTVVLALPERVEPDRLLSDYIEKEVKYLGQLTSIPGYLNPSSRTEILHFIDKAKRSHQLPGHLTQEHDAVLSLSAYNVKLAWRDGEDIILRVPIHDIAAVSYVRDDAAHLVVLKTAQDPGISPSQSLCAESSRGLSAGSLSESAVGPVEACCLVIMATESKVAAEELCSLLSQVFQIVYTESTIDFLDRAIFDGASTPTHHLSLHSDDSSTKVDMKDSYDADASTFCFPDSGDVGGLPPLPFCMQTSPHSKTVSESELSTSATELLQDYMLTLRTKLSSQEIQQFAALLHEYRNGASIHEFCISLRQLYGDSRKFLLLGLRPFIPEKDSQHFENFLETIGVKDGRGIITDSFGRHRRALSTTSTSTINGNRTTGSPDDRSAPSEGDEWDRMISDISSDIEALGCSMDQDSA
substance,measurement,value
HA-Karet (full-length mouse Karet with N-terminal haemagglutinin tag) (from UniProt Q8K2Y9 1-453),"decrease in cell viability, Hek cells co-transfected with EGFR and Karet (XTT)",40%
